Experimental findings from US20220280440A1, “METHOD FOR THE MANUFACTURE OF A DOSAGE FORM WITH MUCOADHESIVE PROPERTIES FOR BUCCAL ADMINISTRATION OF BIOLOGICS” (UNIVERSIDAD DE CHILE, priority 2016, published 2022) are described below.

Series [1] in a line: FTIR of lysozyme inks with or without glycerol. The format is physicochemical. The following applies: FIG. 13. As to the method: On the other hand, since these inks require the addition of glycerol as a viscosity agent, the evaluation of lysozyme inks was performed with or without glycerol by infrared spectroscopy Fourier transform (FTIR).
The nature of series [2]: Effect of the inkjet printing process on nanosystems (properties before and after printing on inert substrate). The following applies: lysozyme in nanoparticles. The format is physicochemical. On the procedure: The process of printing on an inert substrate using a suspension with a nanosystem as carriers of biologic drug models was performed using polymeric nanoparticles. The suspension was incorporated into a cartridge for inkjet printing. The particle properties were measured before and after the printing process. […] Results are expressed as means (standard deviation). Except for an increase in the polydispersity index (PDI), the particles maintain their properties during the printing process and define the methodology for incorporating drug loaded nanoparticles on polymer films.
The obtained printing inks with lysozyme or insulin were loaded into Hewlett Packard cartridges compatible with Hewlett Packard Deskjet 1000 printer, and it was installed to run the printing experiments. Using a commercial software tool appropriate for the task, surfaces of 3×3 cm^2 were printed on an inert substrate to evaluate the effect of the printing process on the polymeric nanoparticles. After the printing process, the printed polymeric nanoparticles were recovered by refluxing with 1 mL of Milli-Q® water, and their physicochemical properties in terms of size, polydispersity index, and zeta potential were determined.

Turning to lysozyme, in series [1], the “Major bands of the FTIR spectra, ink with or without glycerol” value is “does not change during the process”. In addition, the “Amount immobilized at the particle and biologic structure during the printing process (load and protein activity studies)” value in series [2] is reported as “preserved during the printing process”.
